Source: US20210024610A1 (Hoffmann-La Roche, published 2021)
Read-outs that look alike come from different tables or passages of the source.

Legend:
Test in all cases: cell-based or functional assay
[1] = biological target: T1, human 4-1BB expressed on cells (Jurkat-hu4-1BB-NFκB-luc2 reporter cells; human T cells in PBMC) (human, UniProt Q07011 24-255)
[2] = biological target: T1, human 4-1BB expressed on cells …; set-up: unit not given beside the values
[3] = biological target: T1, human 4-1BB expressed on cells …; remark: listed apart in the source
[4] = biological target: T1, human 4-1BB expressed on cells …; remark: listed apart in the source

T1 sequence (Q07011 24-255): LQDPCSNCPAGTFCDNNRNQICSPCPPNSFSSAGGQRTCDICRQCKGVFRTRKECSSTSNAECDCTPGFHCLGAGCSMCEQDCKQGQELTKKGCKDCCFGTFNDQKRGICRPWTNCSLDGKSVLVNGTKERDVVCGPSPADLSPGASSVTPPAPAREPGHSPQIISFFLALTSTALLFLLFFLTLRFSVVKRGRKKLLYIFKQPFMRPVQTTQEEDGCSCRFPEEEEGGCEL

EC50 of NFκB-activation-induced Luciferase activity, Jurkat-hu4-1BB-NFκB-luc2 reporter cells, with KPL-4 cells [1]: 0.02 nM
EC50 of NFκB-activation-induced Luciferase activity, Jurkat-hu4-1BB-NFκB-luc2 reporter cells, with NCI-N87 cells [1]: 0.02 nM
EC50 of NFκB-activation-induced Luciferase activity, Jurkat-hu4-1BB-NFκB-luc2 reporter cells, with SK-Br3 cells [1]: 0.01 nM
AUC above background, PBMC activation assay, % proliferating CD4 [2]: 10
AUC above background, PBMC activation assay, % proliferating CD8 [2]: 16
EC50 of NFκB-activation-induced Luciferase activity, Jurkat-hu4-1BB-NFκB-luc2 reporter cells, with NCI-N87 cells [3]: 0.14 nM
EC50 PBMC activation assay, % proliferating CD4, with NCI-N87 cells [4]: 0.01 nM
EC50 PBMC activation assay, % proliferating CD8, with NCI-N87 cells [4]: ~0.03 nM
B1: anti-human 4-1BB clone 20H4.9 human IgG4 (antibody, V domains shown)
VH: QVQLQQWGAGLLKPSETLSLTCAVYGGSFSGYYWSWIRQSPEKGLEWIGEINHGGYVTYNPSLESRVTISVDTSKNQFSLKLSSVTAADTAVYYCARDYGPGNYDWYFDLWGRGTLVTVSS
VL: EIVLTQSPATLSLSPGERATLSCRASQSVSSYLAWYQQKPGQAPRLLIYDASNRATGIPARFSGSGSGTDFTLTISSLEPEDFAVYYCQQRSNWPPALTFCGGTKVEIKR
